In patent US20250215105A1, “ANTI-CD39 ANTIBODY” (BrightPath Biotherapeutics Co., Ltd., priority 2022, published 2025):
pKd: −log10 of the molar value.

Target: FcγRIIIa (Human) (UniProt P08637)
Test: SPR

Chain of FcγRIIIa (Human) (P08637 17-208 F176V): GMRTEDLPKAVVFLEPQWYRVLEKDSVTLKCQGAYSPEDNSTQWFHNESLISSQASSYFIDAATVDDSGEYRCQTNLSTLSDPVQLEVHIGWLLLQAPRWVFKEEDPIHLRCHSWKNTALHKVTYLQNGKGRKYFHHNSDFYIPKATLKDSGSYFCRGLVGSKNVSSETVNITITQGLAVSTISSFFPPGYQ

pKd: 6.81
Substance: Mogamulizumab
